{
  "source": "the Human Domainome abundance scans (Beltran et al. 2025)",
  "parents": {"B1": {"name": "Zinc finger homeobox protein 3, residues 2244 to 2299; numbered along this chain, Q15911 (parent)", "chain": "SSRTRFTDYQLRVLQDFFDANAYPKDDEFEQLSNLLNLPTRVIVVWFQNARQKARK"}},
  "note": "± gives the uncertainty stated by the source.",
  "data": [
    {"variants_of": "B1", "assay": "abundance fitness (aPCA) (normalised: wild type 0, dead -1); higher = more abundant; growth selection in yeast, the domain comes from the species named", "conditions": "Homo sapiens", "values": [
      {"variant": "SSRTRFTDYQLRRLQDFFDANAYPKDDEFEQLSNLLNLPTRVIVVWFQNARQKARK", "note": "[V13R]", "abundance fitness": "-0.323 ± 0.088"},
      {"variant": "SSRTRFTDYQLRHLQDFFDANAYPKDDEFEQLSNLLNLPTRVIVVWFQNARQKARK", "note": "[V13H]", "abundance fitness": "-0.178 ± 0.17"},
      {"variant": "SSRTRFTDYQLRYLQDFFDANAYPKDDEFEQLSNLLNLPTRVIVVWFQNARQKARK", "note": "[V13Y]", "abundance fitness": "0.003 ± 0.19"},
      {"variant": "SSRTRFTDYQLRSLQDFFDANAYPKDDEFEQLSNLLNLPTRVIVVWFQNARQKARK", "note": "[V13S]", "abundance fitness": "-0.048 ± 0.088"},
      {"variant": "SSRTRFTDYQLRLLQDFFDANAYPKDDEFEQLSNLLNLPTRVIVVWFQNARQKARK", "note": "[V13L]", "abundance fitness": "-0.093 ± 0.073"},
      {"variant": "SSRTRFTDYQLRWLQDFFDANAYPKDDEFEQLSNLLNLPTRVIVVWFQNARQKARK", "note": "[V13W]", "abundance fitness": "-0.794 ± 0.14"},
      {"variant": "SSRTRFTDYQLRKLQDFFDANAYPKDDEFEQLSNLLNLPTRVIVVWFQNARQKARK", "note": "[V13K]", "abundance fitness": "0.008 ± 0.11"},
      {"variant": "SSRTRFTDYQLRQLQDFFDANAYPKDDEFEQLSNLLNLPTRVIVVWFQNARQKARK", "note": "[V13Q]", "abundance fitness": "0.168 ± 0.12"},
      {"variant": "SSRTRFTDYQLRILQDFFDANAYPKDDEFEQLSNLLNLPTRVIVVWFQNARQKARK", "note": "[V13I]", "abundance fitness": "-0.359 ± 0.24"},
      {"variant": "SSRTRFTDYQLRTLQDFFDANAYPKDDEFEQLSNLLNLPTRVIVVWFQNARQKARK", "note": "[V13T]", "abundance fitness": "-0.116 ± 0.11"},
      {"variant": "SSRTRFTDYQLRPLQDFFDANAYPKDDEFEQLSNLLNLPTRVIVVWFQNARQKARK", "note": "[V13P]", "abundance fitness": "-0.773 ± 0.13"},
      {"variant": "SSRTRFTDYQLRNLQDFFDANAYPKDDEFEQLSNLLNLPTRVIVVWFQNARQKARK", "note": "[V13N]", "abundance fitness": "-0.244 ± 0.18"},
      {"variant": "SSRTRFTDYQLRMLQDFFDANAYPKDDEFEQLSNLLNLPTRVIVVWFQNARQKARK", "note": "[V13M]", "abundance fitness": "0.173 ± 0.1"},
      {"variant": "SSRTRFTDYQLRVLQDMFDANAYPKDDEFEQLSNLLNLPTRVIVVWFQNARQKARK", "note": "[F17M]", "abundance fitness": "-0.039 ± 0.14"},
      {"variant": "SSRTRFTDYQLRVLQDCFDANAYPKDDEFEQLSNLLNLPTRVIVVWFQNARQKARK", "note": "[F17C]", "abundance fitness": "-0.222 ± 0.15"},
      {"variant": "SSRTRFTDYQLRVLQDAFDANAYPKDDEFEQLSNLLNLPTRVIVVWFQNARQKARK", "note": "[F17A]", "abundance fitness": "0.17 ± 0.1"},
      {"variant": "SSRTRFTDYQLRVLQDWFDANAYPKDDEFEQLSNLLNLPTRVIVVWFQNARQKARK", "note": "[F17W]", "abundance fitness": "-0.214 ± 0.11"},
      {"variant": "SSRTRFTDYQLRVLQDSFDANAYPKDDEFEQLSNLLNLPTRVIVVWFQNARQKARK", "note": "[F17S]", "abundance fitness": "-0.025 ± 0.11"},
      {"variant": "SSRTRFTDYQLRVLQDPFDANAYPKDDEFEQLSNLLNLPTRVIVVWFQNARQKARK", "note": "[F17P]", "abundance fitness": "-1.08 ± 0.23"},
      {"variant": "SSRTRFTDYQLRVLQDHFDANAYPKDDEFEQLSNLLNLPTRVIVVWFQNARQKARK", "note": "[F17H]", "abundance fitness": "0.245 ± 0.19"},
      {"variant": "SSRTRFTDYQLRVLQDEFDANAYPKDDEFEQLSNLLNLPTRVIVVWFQNARQKARK", "note": "[F17E]", "abundance fitness": "-0.076 ± 0.12"},
      {"variant": "SSRTRFTDYQLRVLQDYFDANAYPKDDEFEQLSNLLNLPTRVIVVWFQNARQKARK", "note": "[F17Y]", "abundance fitness": "0.03 ± 0.13"},
      {"variant": "SSRTRFTDYQLRVLQDDFDANAYPKDDEFEQLSNLLNLPTRVIVVWFQNARQKARK", "note": "[F17D]", "abundance fitness": "-0.876 ± 0.18"},
      {"variant": "SSRTRFTDYQLRVLQDTFDANAYPKDDEFEQLSNLLNLPTRVIVVWFQNARQKARK", "note": "[F17T]", "abundance fitness": "-0.074 ± 0.12"},
      {"variant": "SSRTRFTDYQLRVLQDVFDANAYPKDDEFEQLSNLLNLPTRVIVVWFQNARQKARK", "note": "[F17V]", "abundance fitness": "-0.124 ± 0.087"},
      {"variant": "SSRTRFTDYQLRVLQDKFDANAYPKDDEFEQLSNLLNLPTRVIVVWFQNARQKARK", "note": "[F17K]", "abundance fitness": "0.011 ± 0.13"},
      {"variant": "SSRTRFTDYQLRVLQDRFDANAYPKDDEFEQLSNLLNLPTRVIVVWFQNARQKARK", "note": "[F17R]", "abundance fitness": "0.084 ± 0.076"},
      {"variant": "SSRTRFTDYQLRVLQDLFDANAYPKDDEFEQLSNLLNLPTRVIVVWFQNARQKARK", "note": "[F17L]", "abundance fitness": "-0.381 ± 0.1"},
      {"variant": "SSRTRFTDYQLRVLQDNFDANAYPKDDEFEQLSNLLNLPTRVIVVWFQNARQKARK", "note": "[F17N]", "abundance fitness": "-0.125 ± 0.16"},
      {"variant": "SSRTRFTDYQLRVLQDQFDANAYPKDDEFEQLSNLLNLPTRVIVVWFQNARQKARK", "note": "[F17Q]", "abundance fitness": "-0.47 ± 0.14"},
      {"variant": "SSRTRFTDYQLRVLQHFFDANAYPKDDEFEQLSNLLNLPTRVIVVWFQNARQKARK", "note": "[D16H]", "abundance fitness": "0.033 ± 0.15"},
      {"variant": "SSRTRFTDYQLRVLQYFFDANAYPKDDEFEQLSNLLNLPTRVIVVWFQNARQKARK", "note": "[D16Y]", "abundance fitness": "-0.797 ± 0.24"},
      {"variant": "SSRTRFTDYQLRVLQQFFDANAYPKDDEFEQLSNLLNLPTRVIVVWFQNARQKARK", "note": "[D16Q]", "abundance fitness": "-0.035 ± 0.15"},
      {"variant": "SSRTRFTDYQLRVLQKFFDANAYPKDDEFEQLSNLLNLPTRVIVVWFQNARQKARK", "note": "[D16K]", "abundance fitness": "-0.179 ± 0.16"},
      {"variant": "SSRTRFTDYQLRVLQTFFDANAYPKDDEFEQLSNLLNLPTRVIVVWFQNARQKARK", "note": "[D16T]", "abundance fitness": "-0.114 ± 0.16"},
      {"variant": "SSRTRFTDYQLRVLQGFFDANAYPKDDEFEQLSNLLNLPTRVIVVWFQNARQKARK", "note": "[D16G]", "abundance fitness": "-0.023 ± 0.077"},
      {"variant": "SSRTRFTDYQLRVLQSFFDANAYPKDDEFEQLSNLLNLPTRVIVVWFQNARQKARK", "note": "[D16S]", "abundance fitness": "-0.023 ± 0.11"},
      {"variant": "SSRTRFTDYQLRVLQVFFDANAYPKDDEFEQLSNLLNLPTRVIVVWFQNARQKARK", "note": "[D16V]", "abundance fitness": "-0.344 ± 0.11"},
      {"variant": "SSRTRFTDYQLRVLQNFFDANAYPKDDEFEQLSNLLNLPTRVIVVWFQNARQKARK", "note": "[D16N]", "abundance fitness": "-0.222 ± 0.19"},
      {"variant": "SSRTRFTDYQLRVLQRFFDANAYPKDDEFEQLSNLLNLPTRVIVVWFQNARQKARK", "note": "[D16R]", "abundance fitness": "-0.035 ± 0.082"},
      {"variant": "SSRTRFTDYQLRVLQAFFDANAYPKDDEFEQLSNLLNLPTRVIVVWFQNARQKARK", "note": "[D16A]", "abundance fitness": "-0.353 ± 0.11"},
      {"variant": "SSRTRFTDYQLRVLQCFFDANAYPKDDEFEQLSNLLNLPTRVIVVWFQNARQKARK", "note": "[D16C]", "abundance fitness": "-0.472 ± 0.13"},
      {"variant": "SSRTRFTDYQLRVLQEFFDANAYPKDDEFEQLSNLLNLPTRVIVVWFQNARQKARK", "note": "[D16E]", "abundance fitness": "-0.129 ± 0.11"},
      {"variant": "SSRTRFTDYQLRVLQFFFDANAYPKDDEFEQLSNLLNLPTRVIVVWFQNARQKARK", "note": "[D16F]", "abundance fitness": "-0.596 ± 0.26"},
      {"variant": "SSRTRFTDYQLRVLQWFFDANAYPKDDEFEQLSNLLNLPTRVIVVWFQNARQKARK", "note": "[D16W]", "abundance fitness": "-0.714 ± 0.12"},
      {"variant": "SSRTRFTDYQLRVLQIFFDANAYPKDDEFEQLSNLLNLPTRVIVVWFQNARQKARK", "note": "[D16I]", "abundance fitness": "-0.22 ± 0.25"},
      {"variant": "SSRTRFTDYQLRVQQDFFDANAYPKDDEFEQLSNLLNLPTRVIVVWFQNARQKARK", "note": "[L14Q]", "abundance fitness": "-0.549 ± 0.18"}
    ]}
  ]
}
